According to the DeepSol protein solubility set:

Assay: soluble on expression in E. coli; label from the status in PepcDB or PDB records

Sequence | soluble on expression in E. coli
MAHHHHHHMVAKRKEFELTKVIQEATFLTFKGLDTHDVYNCCVPFKISGTYHIFGRVERRSEWVNSHVRLFRKTGHDEYTLVEHAMQYQLEDPFLVKINNEALFGGVRVTKDHGKVSGYVCDFYRGKIDDLHYFTSGPQNMKDIRLVVLADGKIGVFSHHKTSNTCITGFTIIDSLDDLCSQVIDSAKPIDHTLFGDAWGGVNQPYLLSTGKIGCISHHGYLDTDAHGEVINVYCITSFVYQPSANKCYDYKILGTKNCFPDYPAKALKLIDCAFVSGIVMREDGKCDLYSGVGDTREGRMVIDYPFEGHGTIADDLDF | not soluble
MGSDKIHHHHHHMPTINSIQTTVNGVVKIVKPFNNDIAGEQFDPHVLQTLTAFKQPAILENDLAALRSGSLTPAIADPVGDAVTVQSRNITALNRTVSVEWLTPQNVINHTVLVYFHGGAFYGGVPGNNTVLLKLVAAKSHCEILNVDYSLAPEAPAPAGILDGLAIFQYLEQRDAETMITVAGDSAGANVIMAATNLNQQLGSNRINQQLLLYPVTAPNADHAGPLWDLAAFPIIDSQRAILTNYHDLFRQLDSIMTDYYVPENFDSHSPLISPLHQENFTMTPPTTIMVGEFDPFRPQAWAYAQRLAAADTATTFIQYQGLNHAFAPLVDQYWQSQDVAQVMAAALI | not soluble
MTQAATILRTGRKFDQVLRGAREVFMSDGFEGANVDDIARAAGVSKATLYSYFPDKRLLFVEVAQTECQLMAERILSMIDEDRPVREVLTITATQLVAFLISDFAQQVFRICLAERERFPELARAFYAAGPENGQRQICEYLEKAVTKGELVIADIPMAAEQFSELCKTRLWTRAVFGIQTRFTQAEIDEVALAAVDTFLARYGA | not soluble
MELGLAGKTALVAASSQGLGKAIARALVLEGTNVMITSRNEEKLHEVAEELNSLHKGRVAYTRTDVTNADDIRQLVAKTVETFGTIDLLVNNAGGPPAGTFETVSDEDWQYAFELNLLSYIRLIREALPYLKKKGGKIVNIASSSIKEPIPGLILSNTFRTGIVGLTKTLAVELAPDGILINTVAPGRIATERVAFLDKVNAEKLGITKEEMEARMKSAIPLGRYGTPEEFANVVVFLLSEANSYVTGQALIVDGGMVKAI | soluble
MERTVKLRVKVDYSTYSALKEVEKEYREVLEDAINYGLSNKTTSFTRIKAGVYKTEREKHKDLPSHYIYTACEDASERLDSFEKLKKRGRSYTEKPSVRRVTIHLDDHLWKFNLDTISISTKRSRILISPTFPKIFWRYYNTEWRIASEARFRLMKGNVVEFYVIFKRDEPKPYEPKAFIPVDLNENSVSVLINSKPLLLETNTKKITLGYEYRRKAITTGKSTKDREVRRKLKRLRERNKKVDIRRKLAKLIVKEAFESRSAIVLEDLPRRTPEHMIKDVKDKQLRLRIYRSAFSSMKNAIIEKAREFGVPVVLVNPSYTSTVCPIHGANIVYQLDGGDAPRVGVCEKGKEKWHRDVVALYNLARRAGDVSPVPLGSKESHDPPTLSGWLRAKSLHSIMNEHKMIEMKVLEHHHHHH | soluble
MIDMFHINIPFKKDVIIEMGDCGFVDFAKLAEKTELKIACGNVEFSVVNDQKKVRTDDLYHPWSTIPSSYTDIACKVFDAEPRANVFWGYLQLKASPAKVMQGHNVYGSEDFRLCVEYLLDSLQKAQPELWELLDVGLAEMTRIDCTYSIKCANPDILRQTIKQMGNVSNRYIKPARNSDFETTLYFNRATKANPGAGRSFELCIYTKHDEIAHQLADLKRRARQGDSDRFNRIIDELSKPELQAFAANRLRFEGRAKKRFIQKHVGSANLWQVIRHAEQFEAKNGYRFCEWMFKTLFHDLLESLKGEELELYNDSKIKQLLRDAYSTMTPKLEHHHHHH | soluble
MSLDNHNPKKSTTPNNEFHKKIATTGKIINLPKQSIVPAVSISVYNDMKTIVLTPMEFQLSSIGFQFQNLIIDLPHSTISTNCITFYYHQDHILIDLIDQNYLFITLKIAIDRFILGGQQLTLDNFEEWGYISVPYSFELRSSPFLLKCLDNLNLIVSLKDGGLLHFKRDEELGEINVFNFQEQGTLIPFLGFFGSGKQKDVVLDGVSSNSIVDALQIGGSGVVITLSVNKVLKLWNLDGHQNLSSLTIASDDNTWLPTIPSKYLKSYDQEDGKTIITLFINTKSGDSSKSMFVFKSFELESSNEGHHHHHH | not soluble
MDFAVMKQVKNTGLLQSEELCQYILRTSVYPREAGFLKELREANESHPDSYMSTSPLAGQLMSFVLKLVNAKKTIEVGVFTGYSLLLTALSIPDDGKITAIDFDREAYEIGLPFIRKAGVEHKINFIESDAMLALDNLLQGQESEGSYDFGFVDADKPNYIKYHERLMKLVKVGGIVAYDNTLWGGTVAQPESEVPDFMKENREAVIELNKLLAADPRIEIVHLPLGDGITFCRRLY | soluble
